Patent US20200255501A1 (VIB VZW, published 2020)
Substitutions are numbered along the chain they refer to.

B1: anti-Sap Nanobody703 (VHH)
VHH: QVQLVESGGGLVQPGGSLRLSCAASGFTFSSYAMSWVRQAPGKGLEWVSDINSGGGSTYYADSVKGRFTISRDNAKNTLYLQMNSLKPEDTAVYYCATGGKYGSTWYGQIEYDYWGQGTQVTVSS
B2: anti-Sap Nanobody688 (VHH)
VHH: QVQLVESGGGLVRAGGSLRLSCAASGSIFRINDMGWYRQAPGKQRELVAAITSGGSTNYADSVKGRFTISRDNAKNTVYLQMNSLKPEDTAVYYCNADFSTVRERRYDYWGQGTQVTVSS
B3: anti-Sap Nanobody692 (VHH)
VHH: QVQLVESGGGLVQAGGSLRLSCAASGSIFRINDMGWYRQAPGKQRELVAVITSGGSANYADSVKGRFSISRDNAKKAVYLRMNSLKPEDTAVYYCNADFGTLGRYDYWGQGTQVTVSS
B4: anti-Sap Nanobody707 (VHH)
VHH: QVQLVESGGGLVQAGGSLRLSCAASGSIFRINAMGWYRQASGKQRELVAAITSGGNTNYADSVKGRFTISRDNAKNTVYLQMNSLKPEDTAVYYCNADFGTGGRPYDYWGQGTQVTVSS
B5: anti-Sap Nanobody702 (VHH)
VHH: QVQLVESGGGLVQAGGSLRLSCAASGSIFRVNDMGWYRQAPGKQRELVAIIITGGSTNYADSVKGRFTISRDNAKNTVYLQMNSLRPEDTAVYYCNADFGTGPGRYDYWGQGTQVTVSS
B6: anti-Sap Nanobody684 (VHH)
VHH: B4 VHH with S21F, I31V, A40V, S41T, N56R, A74I, F99L, P105S
B7: anti-Sap Nanobody683 (VHH)
VHH: B4 VHH with A33D, S41P, N56S, N76K, T77M, N96H, G100S, G103W, R104A

How the values were obtained:
[1] = target: T1, B. anthracis Surface array protein (Sap), native S-Layer on B. anthracis 34F2 cells (Bacillus anthracis, UniProt P49051 30-814); experiment: fluorescence microscopy of B. anthracis 34F2 cells with DyLight 650-labelled Nb
T1 sequence: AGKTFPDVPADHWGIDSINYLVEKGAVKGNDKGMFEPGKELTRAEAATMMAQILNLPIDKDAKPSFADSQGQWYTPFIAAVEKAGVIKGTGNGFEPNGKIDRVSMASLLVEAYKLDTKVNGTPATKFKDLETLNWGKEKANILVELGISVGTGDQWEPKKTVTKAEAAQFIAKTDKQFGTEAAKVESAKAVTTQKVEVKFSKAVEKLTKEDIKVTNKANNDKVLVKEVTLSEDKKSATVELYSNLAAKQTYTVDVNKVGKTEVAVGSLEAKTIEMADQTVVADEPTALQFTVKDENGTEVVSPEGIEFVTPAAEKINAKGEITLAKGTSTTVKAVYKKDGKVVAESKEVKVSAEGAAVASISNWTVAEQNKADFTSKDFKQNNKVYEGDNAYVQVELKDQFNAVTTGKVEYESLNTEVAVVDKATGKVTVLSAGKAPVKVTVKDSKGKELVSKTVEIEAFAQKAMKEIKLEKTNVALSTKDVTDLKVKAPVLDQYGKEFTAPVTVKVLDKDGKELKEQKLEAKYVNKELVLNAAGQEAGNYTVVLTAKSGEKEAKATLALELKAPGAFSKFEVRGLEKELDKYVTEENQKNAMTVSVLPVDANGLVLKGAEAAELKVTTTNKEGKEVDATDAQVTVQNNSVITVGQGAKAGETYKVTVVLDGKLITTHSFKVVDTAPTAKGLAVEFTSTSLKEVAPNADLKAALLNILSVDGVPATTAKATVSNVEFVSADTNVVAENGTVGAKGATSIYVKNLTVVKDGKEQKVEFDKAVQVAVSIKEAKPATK

[2] = target: Sap Domain 2 (D2, residues 296-384), isolated recombinant domain (Bacillus anthracis, UniProt P49051 296-384); experiment: dot blot
[3] = target: Sap Domain 1 (D1, residues 216-295), isolated recombinant domain (Bacillus anthracis, UniProt P49051 216-295); experiment: dot blot

Binder	binding result [2]	other results
B1		binding result [1]: binds
B2	no binding	
B3	no binding	
B4	no binding	
B5	no binding	
B6		binding result [3]: binds
B7	no binding	
